Assay: soluble on expression in E. coli; label from the status in PepcDB or PDB records

Row | Sequence | soluble on expression in E. coli
1 | MAGDPMWKTDVKLNADKFRKIDVHSHIQVLGYPFNVSITPQEFLSLMEAYNIEVAIISDVDNENIAKIVREYPDKLVGIYWANPRDKNSIKEAEKFLEKFEFRGIKLHPLLNMFSPADPKVEDIMRIAEEFNVHVQVHSGHPPTSLPWQIEELARKFPEVKIVMVHMGHGNAYYIQGAIEVAERNENVYLETSGMPMPSKIAEAYKVAPKRVVFGIDLPCHHPVVEIAKVLTSGLDEKGMERVFYENAKVLLLEHHHHHH | not soluble
2 | MAGDPNSMFSPQASAAYDDLHEGYATYTGSGYSGGAFLLDPIPSDMEITAINPADLNYGGVKAALAGSYLEVEGPKGKTTVYVTDLYPEGARGALDLSPNAFRKIGNMKDGKINIKWRVVKAPITGNFTYRIKEGSSRWWAAIQVRNHKYPVMKMEYEKDGKWINMEKMDYNHFVSTNLGTGSLKVRMTDIRGKVVKDTIPKLPESGTSKAYTVPGHVQFPELEHHHHHH | soluble
3 | MAGDYSYDAVKREYVIGSDMTSYAHEVFAAAKPMDIRHNDLPQPDSVIDVTVSTTEWPEGDSNYPINPKLVFTNHSNVAIPGGSTIEFLMPTSSGDIVKDWSGAGLKVIESGHTGSNFSVNGEKKLFHKVAVTLRSTETIPAGGEYSVDMVYYTPVSGVANGVRFIVGNETVGLKKDFPTLPALEHHHHHH | soluble
4 | MAGFMKNAMSYLGMSDVVDDEDDYIEEDEEQKPASKSAFDSDHTVTPLASTTAPAASSTTKPFPGGRVNRITTIHPKSYEDAQLVGRALRDGVPVVLNLTGVAEAVAYRIVDFSAGVVFGVRGSLERVTPRVFLLSPAQVNIKVEEPTKPASAHDLFADAAALEHHHHHH | not soluble
5 | MAGIAMKLAKDREAAEGLGSHERAIKYLNQDYETLRNECLEAGALFQDPSFPALPSSLGFKELGPYSSKTRGIEWKRPTEICADPQFIIGGATRTDICQGALGDSWLLAAIASLTLNEEILARVVPLDQSFQENYAGIFHFQFWQYGEWVEVVVDDRLPTKDGELLFVHSAEGSEFWSALLEKAYAKINGCYEALSGGATTEGFEDFTGGIAEWYELRKPPPNLFKIIQKALEKGSLLGCSIDITSAADSEAVTYQKLVKGHAYSVTGAEEVESSGSLQKLIRIRNPWGQVEWTGKWNDNCPSWNTVDPEVRANLTERQEDGEFWMSFSDFLRHYSRLEICNLTPDTLTCDSYKKWKLTKMDGNWRRGSTAGGCRNYPNTFWMNPQYLIKLEEEDEDDEDGERGCTFLVGLIQKHRRRQRKMGEDMHTIGFGIYEVPEELTGQTNIHLSKNFFLTTRARERSDTFINLREVLNRFKLPPGEYVLVPSTFEPHKNGDFCIRVFSEKKADYQTVDDEIEANIEEIEANEEDIGDGFRRLFAQLAGEDAEISAFELQTILRRVLAKREDIKSDGFSIETCKIMVDMLDEDGSGKLGLKEFYILWTKIQKYQKIYREIDVDRSGTMNSYEMRKALEEAGFKLPCQLHQVIVARFADDELIIDFDNFVRCLVRLEILFKIFKQLDPENTGTIQLDLISWLSFSVLGKLAAALEHHHHHH | soluble
6 | MAGTTTYELIDYLEGKDILVVSNGLSHIDTLIQKNIKCYVIGGNIKISTKAITGCDALMCLSKFRFDKCFIGANGVHHTYGLTTPDTEEAILKECAINNSRKAYVLADDSKFGEISTIKFSDINKCVIITNEKPKDNTYDKKTDIKVVDILEHHHHHH | not soluble
7 | MAGVAEFNDKGELLLPKNYREWVMVGTQVTPNELNDGKAPFTEIRTVYVDPESYAHWKKTGEFRDGTVTVKELVSVGDRKGPGSGNGYFMGDYIGLEASVKDSQRFANEPGNWAFYIFYVPDTPLVAAAKNLPTAECAACHKENAKTDMVFTQFYPVLRAAKATGESGVVAPKKLAAALEHHHHHH | soluble
8 | MAGVKYPGQDPVDLDIYQSSHMVDYQPYRKHKYSRVTPQEQAKLDAQLRDKEFYRPIPNPNPKLTDGYPAFKRPHMTAKDLGLPGFFPSQEHEATREDERKFTSTCHFTYPASHDLHLAQGDPNQVLQSADFPCLVDPKHQPAAEMAKGYLLLPGCPCLHCHIVKVPILNRWGPLMPFYQ | not soluble
9 | MAHHHHHHEAVVTPWSVEGDVNYDKLIKDFGSHAIDEALLERIERVLGKKPHHFLRRGIFFSHRDLNLLLDVYESGQPFYLYTGRGPSSESMHMGHLIPFMFTKWLQDSFRVPLVIQMTDDEKFYFRNIPMEQVEAMTTENIKDIIAMGFDPELTFIFRDFDYMGCMYRTVAKIERAFTASQVRGCFGFAMEDNCGRWMFPAIQAAPSFSAAFPHIFPPSMGNVFCLIPQAIDQDPYFRLTRDIAPRLGYLKPAVIHSKFFPGLSGPKGKMSSSSGTAVLLTDTEKMVKDKINKHAFSGGGATKQEHFLLGANVEVDVPIQWLSFFLEDDEELARVKKEYMLGRIMTGEVKKLLINTITAITKTHQEKRKLVTDEDVQLFTSTRIMGPAKKAATQ | soluble
10 | MAHHHHHHGHHHQLENLYFQGEETAVPENSGANTELVSGESEHSTNEADKQNEGEHARENKLEKAEGVATASETASPASNEAATTETAEAASAAKPEEKASEVVAETPSAEAKPKSDKETEAKPEATNQGDESKPAAEANKTEKEVQPDVPKNTEKTLKPKEIKFNSWEELLKWEPGAREDDAINRGSVVLASRRTGHLVNEKASKEAKVQALSNTNSKAKDHASVGGEEFKAYAFDYWQYLDSMVFWEGLVPTPDVIDAGHRNGVPVYGTLFFNWSNSIADQERFAEALKQDADGSFPIARKLVDMAKYYGYDGYFINQETTGDLVKPLGEKMRQFMLYSKEYAAKVNHPIKYSWYDAMTYNYGRYHQDGLGEYNYQFMQPEGDKVPADNFFANFNWDKAKNDYTIATANWIGRNPYDVFAGLELQQGGSYKTKVKWNDILDENGKLRLSLGLFAPDTITSLGKTGEDYHKNEDIFFTGYQGDPTGQKPGDKDWYGIANLVADRTPAVGNTFTTSFNTGHGKKWFVDGKVSKDSEWNYRSVSGVLPTWRWWQTSTGEKLRAEYDFTDAYNGGNSLKFSGDVAGKTDQDVRLYSTKLEVTEKTKLRVAHKGGKGSKVYMAFSTTPDYKFDDADAWKELTLSDNWTNEEFDLSSLAGKTIYAVKLFFEHEGAVKDYQFNLGQLTISDNHQEPQSPTSFSVVKQSLKNAQEAEAVVQFKGNKDADFYEVYEKDGDSWKLLTGSSSTTIYLPKVSRSASAQGTTQELKVVAVGKNGVRSEAATTTFDWGMTVKDTSLPKPLAENIVPGATVIDSTFPKTEGGEGIEGMLNGTITSLSDKWSSAQLSGSVDIRLTKSRTVVRWVMDHAGAGGESVNDGLMNTKDFDLYYKDADGEWKLAKEVRGNKAHVTDITLDKPITAQDWRLNVVTSDNGTPWKAIRI | soluble
11 | MAHHHHHHMAAADQLRYAAQMIELARSEEREDGNPLTAARCYTTAMEVIASEASKRAAMIESNEARRFFLFQVRSKLEMYHERAELLLQVANGSGLLDKPSLSNGDASALQTNYPPALFASAVANEKSSSGNGGVASCSTGGGVSVLGIPLQPQQMAPSAPPTQTQSSYGDFKEPPMSCYLKPDDDATAEPPPVTPELNLDELMKNLGAPPEL | not soluble
12 | MAHHHHHHMAADEDAREHRTMCRLLQAATGKLSDMTVTTNIETHIATLRAANMSTSPKEWHALFNSKNNSNAYEKLSAEGKKEAGALGGAAAWGAWRTDKEEAEKKKIGTQEDKDFPAIADARQQFAAHNRLLELTAKAVEISKKWKAAKDFITNDETNNIQKLLREALYEDGAAADALTQSTSFGTGSNWASHCNGDDKRKSISGDFLCMRGGSGGAAKECSGAFTGAEIDNQGTITTKWADLKASCALNTENVITPHEIAAALGSLARQPHTTRSSK | not soluble
13 | MAHHHHHHMAARTDDPRLLSLFSAQREEDADIVIIGFPYDEGCVRNGGRAGAKKGPAAFRFFLQRLGSVNNLELNVDASHLKLYDAGDITASTLEEAHEKLESKVFTVLARGAFPFVIGGGNDQSAPNGRAMLRAFPGDVGVINVDSHLDVRPPLQDGRVHSGTPFRQLLEESSFSGKRFVEFACQGSQCGALHAQYVRDHQGHLMWLSEVRKKGAVAALEDAFGLTGKNTFFSFDVDSLKSSDMPGVSCPAAVGLSAQEAFDMCFLAGKTPTVMMMDMSELNPLVEEYRSPRVAVYMFYHFVLGFATRPKPKAEN | soluble
14 | MAHHHHHHMADTEAVAGTEAIPPTQNEQHDSAAKKKQANSYYYWHNHEKERAKVGDVAPMPKPVLLKKSDPSVLPASTASYPITKHSWCDGKKNVTVYIDTKLDEKETMVEDTLQVEFGKRRLTVSYIANVQTSKDVATQRRKQLVLCLAKAIKSKESSYKVKDPSGQIVIRLAKAEETSWWELAKKDGKLSDADDSDEENEGKADEGDGAAEEKA | soluble
15 | MAHHHHHHMAGEPYLVYLLRCLAHQSGLTQLSPHFAVPTTEIDSDDGGAVAVVTAGHSANHPSRLFWERCVVVGVRVEPTTKNLLQTGWETQPCSHCVSQDGAAADAHDSPSRRSRLCVLPLLYGGTQCGECGHALSLVPTWTRALYLVLQRRDRSRAAAVAYGEEVHRHLWLGVTIDALLYTSATEQQQQLLVVHAAAGPAAAAPSATLPCAETTKGAFHIICQDERVNRLGLKWGDGTAFSAAANLHDVARRVAPQLQGQAHVKRLLLLVVLYIVYYGSHPAAAGSHRHPLHVLLVGPAKTGKSALLREVAQLIGLEAEVLDSTVVRTGGSGGAAGGSSFSAALPIRRSAVLMAGSGMTASTLVLDQLPSTAGGAAAMAPLLEAMERGHGCGAASGEGDAAAGGPDVHELPSTIIAAAGEESAAAVQLAPYFSLLAAVAPTNSLDDTAIISQDVVAASRARSSHSRATSRSMSRATQLSASSPHHSQRGPSISQSTSHRADPSSLSERLTHEDVCYLVRRAAEPVLLNSVVSHAACYDAFIDKLVDCAGLLEETQPSVCHALPPPSACRGQHRVGLPSAACDSLRAAPLAIDEHLRILCALSRARALLEHAEVLRDAGWTAQMRDEVWALYHGHLVAFADLMQRRSCSSGAMASRDPAEVLRTTSWSSSFFDACGGSTAAPAPAGYPSLSRFSGDAAALGRAWKGRMRAMSSREGLGLWHPQKTPSKKRCRLMFVEALRQRQCLSAQVESAVPPPEVEHVFGLLGGSSAFGDPLDVVISQMQEEGLLLRRPGGWRSL | not soluble
16 | MAHHHHHHMAHAVGFACPHMADPSMVRNVIGVRGRALSVVVDSTNAAMAARKHYDCDDIYGMELQDQNGDGSTLESHWSQRHAKDELMAPIGGAGDHTELTLAAFAELGCMRVNWKLAEPMGWGKKSGCELLQSKRSAPNMSEYSHIFCNRDEVVERCASDRYSRGFCRRSIIEFSKQHSMDSCPIIDPAMDVRDLEAVFEKEEYLSARPGDKPSSWCLDTLPTNTTDARYPEETYLSAATQAELKCLGMQVHLKNPEKRNVRWLPCTEEETITWDTPPYNKENVICPKYAEVCTISATGGSVIPVVSWDGEARVWSRTVPPASTGQGLPGASVPVAESIDPGRGTHTKDVVTAIPERNLLLQGPWRLSVLLLLLE | soluble
17 | MAHHHHHHMAIACDSPVITLYKPRENGMIMPCHPEMSTVENIGQITDAHRLVPTAVRFSEDSQWVISAGEDETLAVSSVRKLKRVFVCTEFITRRHCMAFMNTFTSLCILASPPETSVLIIAACATDGTVVQWVVNPATSRSSYTKKLQLHLGALVAMDIMRDGTGS | not soluble
18 | MAHHHHHHMAKEYPILVVPCKRGGIPCLTPDQARAILNEEERVISVSIFDASEFVDPCKKANQGFAEFCGLGEFRTILTVRSPHIGMHASAPATDAGLCANHEKGRISLGMDKWKEMVLPLRPEIAIPPYDSVSINEPQKKRRRTAMTRSAKWATSADSLQGNGNCKLMKPLCAAENNGEFVFLEELCQNETLQQYTYHVKEAINKGQVMSTAISLPSLLICLKYNVCFIESAIPWILAEKGIGLVFDFNPVSGVSPARYETQIDLNDDCFTKDIRPLSPDCNCYTCKRHMRAYIHHLLTVQEMNSKTLLVIHNLTRLIQLVRLYRILDAEDREALLNWLFAQF | not soluble

From the DeepSol protein solubility set
